{
  "source": "patent US20230002478A1",
  "binders": {"B1": {"name": "6-63 (Fc fusion)", "chain": "EVQLVESGGGLVQPGGSLRLSCAASGQTFNMGWFRQAPGKEREFVAAIGSGGSTSYADSVKGRFTISADNSKNTAYLQMNSLKPEDTAVYYCWRLGNDYFDYWGQGTLVTVSS"}},
  "test_in_all_cases": "SPR",
  "conditions_in_all_cases": "remark: other sources report otherwise",
  "key": {"[1]": {"target": "SARS-CoV-2 S RBD (K417N) (SARS-CoV-2), P0DTC2"}, "[2]": {"target": "SARS-CoV-2 S RBD (Y453F) (SARS-CoV-2), P0DTC2"}, "[3]": {"target": "SARS-CoV-2 S1 (D614G) (SARS-CoV-2), P0DTC2"}, "[4]": {"target": "SARS-CoV-2 S1 (HV69-70del, Y144del, N501Y, A570D, D614G, P681H) (SARS-CoV-2), P0DTC2"}, "[5]": {"target": "SARS-CoV-2 S RBD (N501Y) (SARS-CoV-2), P0DTC2"}},
  "data": [
    {"binder": "B1", "values": [
      {"measurement": "Kd", "setting": "[1]", "result": 14, "unit": "nM"},
      {"measurement": "Kd", "setting": "[2]", "result": 5.4, "unit": "nM"},
      {"measurement": "Kd", "setting": "[3]", "result": 95, "unit": "nM"},
      {"measurement": "Kd", "setting": "[4]", "result": 80, "unit": "nM"},
      {"measurement": "Kd", "setting": "[5]", "result": 3.8, "unit": "nM"}
    ]}
  ]
}
